According to article PMC12143351:
Like-named read-outs stand apart in the source and are kept apart here.

Key:
[1] = target: WT-nsp5_(BA.1), SARS-CoV-2 nsp5 protease of the Omicron (BA.1) strain (SARS-CoV-2 (Omicron BA.1)); test: SEC-MALS
[2] = target: WT-nsp5_(BA.1), SARS-CoV-2 nsp5 protease of the Omicron (BA.1) strain (SARS-CoV-2 (Omicron BA.1)); test: SEC-MALS; remark: listed apart in the source

WT-nsp5_(BA.1), SARS-CoV-2 nsp5 protease of the Omicron (BA.1) strain (enzyme)
percent dimeric [1]: 64% | percent dimeric [2]: 72% | stoichiometry N [2]: 2
